Read-outs that look alike come from different tables or passages of the source.

As a reminder, the Km is the substrate concentration at which the rate is half of its maximum. In general, stoichiometry N refers to a count of units in the complex or per binding partner.

In one series the test system is AncCDT‐5 (A5). The series can be described thus: discontinuous colorimetric assay of phenylpyruvate formation. The settings on record: 25°C, 50 mM Na2HPO4 substrate buffer, 100 nM enzyme. The format is biochemical, synthetic construct.
The series “SEC-MALS” concerns the molecule itself. Kind of series: SEC-MALS. On the technique in general: In gel filtration, larger molecules generally elute earlier.
Series [1] concerns the molecule itself.

Take `O=C(O)C(=O)CC1(C(=O)O)C=CC(O)C=C1` (stereo not shown) [prephenate]: the Michaelis-Menten constant (Km) in the series on AncCDT‐5 (A5) was 81.2 ± 26.3 µM.

B1: Cyclohexadienyl dehydratase from Pseudomonas aeruginosa (PaCDT) (enzyme, UniProt Q01269 26-268, looked up)
chain: QESRLDRILESGVLRVATTGDYKPFSYRTEEGGYAGFDVDMAQRLAESLGAKLVVVPTSWPNLMRDFADDRFDIAMSGISINLERQRQAYFSIPYLRDGKTPITLCSEEARFQTLEQIDQPGVTAIVNPGGTNEKFARANLKKARILVHPDNVTIFQQIVDGKADLMMTDAIEARLQSRLHPELCAVHPQQPFDFAEKAYLLPRDEAFKRYVDQWLHIAEQSGLLRQRMEHWLEYRWPTAHGK
In the case of B1, the “stoichiometry N” value in the series “SEC-MALS” amounted to 3.

B2: PaCDTΔC (C-terminal-truncated PaCDT) (enzyme, Pseudomonas aeruginosa, UniProt Q01269 26-259, looked up)
chain: QESRLDRILESGVLRVATTGDYKPFSYRTEEGGYAGFDVDMAQRLAESLGAKLVVVPTSWPNLMRDFADDRFDIAMSGISINLERQRQAYFSIPYLRDGKTPITLCSEEARFQTLEQIDQPGVTAIVNPGGTNEKFARANLKKARILVHPDNVTIFQQIVDGKADLMMTDAIEARLQSRLHPELCAVHPQQPFDFAEKAYLLPRDEAFKRYVDQWLHIAEQSGLLRQRMEHWLE
As for B2, the “stoichiometry N” value in “SEC-MALS” stood at 3.

B3: Ws0279 (natural protein)
chain: QKSTLNEIIKRGELRVGLEPGYLPFEMKDKKGNVIGFDVDLAREMAKAMGVKLKLVPTSWDGLIPGLVTEKFDIIISGMTISQERNLRVNFVEPYIVVGQSLLVKKGLEKGVKSYKDLDKPELTLVTKFGVSAEYAAKRLFKNAKLKTYDTEAEAVQEVLNGKADMFIFDLPFNVAFMAQKGQGYLVHLDTSLTYEPLGWAIKKGDPDFLNWLNHFLAQIKHDGSYDELYERWFVL
As for B3, in series [1], the “stoichiometry N” value came out at 3.
